Data published in patent US20240124607A1 (Merck Sharp & Dohme, published 2024).

Assays:
human CEACAM5 on cells [1] = biological target: T1, human CEACAM5 on cells (human, UniProt P06731 35-685); test: flow cytometry, SK-CO-1 cells
T1 construct: tumour cell lines with endogenous CEACAM5, or B16F10 engineered to express hCEACAM5; also called CEACAM5 on MKN-45, HPAF-II, SK-CO-1, LoVo, BxPC-3, Kato-III, LS-174T, ZR-75-30; hCEACAM5-B16F10
T1 sequence: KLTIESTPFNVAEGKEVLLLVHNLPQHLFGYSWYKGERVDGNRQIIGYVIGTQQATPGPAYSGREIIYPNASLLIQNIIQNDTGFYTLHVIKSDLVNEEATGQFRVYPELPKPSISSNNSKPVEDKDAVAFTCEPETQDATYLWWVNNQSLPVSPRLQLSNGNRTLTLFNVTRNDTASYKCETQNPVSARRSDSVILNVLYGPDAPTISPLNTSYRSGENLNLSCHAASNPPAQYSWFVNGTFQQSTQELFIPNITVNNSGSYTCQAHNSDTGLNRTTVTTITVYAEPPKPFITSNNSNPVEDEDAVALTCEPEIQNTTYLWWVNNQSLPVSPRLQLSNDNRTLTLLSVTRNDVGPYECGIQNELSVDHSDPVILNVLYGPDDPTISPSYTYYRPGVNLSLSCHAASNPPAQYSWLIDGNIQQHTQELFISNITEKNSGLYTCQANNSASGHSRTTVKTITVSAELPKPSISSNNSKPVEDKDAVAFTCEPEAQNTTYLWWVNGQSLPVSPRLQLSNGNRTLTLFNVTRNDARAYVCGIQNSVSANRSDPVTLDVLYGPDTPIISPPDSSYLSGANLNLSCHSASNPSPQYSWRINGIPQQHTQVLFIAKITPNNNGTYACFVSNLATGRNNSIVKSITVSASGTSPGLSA

[2] = biological target: T2, human CEACAM1 on Ba/F3 cells (human, UniProt P13688 35-526); test: flow cytometry on Ba/F3 cells expressing human CEACAM1, fold over background (FOB), 5-fold dilutions from 1600 nM
T2 construct: whole, on cells
T2 sequence (looked up): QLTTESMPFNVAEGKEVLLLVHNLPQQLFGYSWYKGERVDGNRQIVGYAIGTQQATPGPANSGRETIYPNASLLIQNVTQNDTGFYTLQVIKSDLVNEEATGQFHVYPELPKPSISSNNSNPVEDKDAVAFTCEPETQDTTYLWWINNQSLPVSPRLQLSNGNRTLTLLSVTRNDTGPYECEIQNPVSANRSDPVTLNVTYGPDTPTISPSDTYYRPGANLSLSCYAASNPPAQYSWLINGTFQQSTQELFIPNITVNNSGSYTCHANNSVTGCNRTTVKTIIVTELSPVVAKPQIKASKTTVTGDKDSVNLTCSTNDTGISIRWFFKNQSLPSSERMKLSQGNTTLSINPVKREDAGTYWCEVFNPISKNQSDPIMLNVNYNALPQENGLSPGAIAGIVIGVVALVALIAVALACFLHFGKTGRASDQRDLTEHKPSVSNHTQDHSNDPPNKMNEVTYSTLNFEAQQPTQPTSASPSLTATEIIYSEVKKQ
Description: (§1) To examine the binding specificity of the TriNKETs to CEACAM5 compared to other CEACAM family members, Ba/F3 cells were engineered to express one of human CEACAM1, CEACAM6, CEACAM8, or cynomolgus CEACAM5. CEACAM5 TriNKETs were evaluated by flow cytometry starting at 1600 nM followed by 7 5-fold dilutions.

[3] = biological target: T3, cynomolgus CEACAM5 on Ba/F3 cells (cynomolgus monkey); test: flow cytometry on Ba/F3 cells expressing cynomolgus CEACAM5, fold over background (FOB), 5-fold dilutions from 1600 nM
T3 construct: whole, on cells
Description: as §1

human CEACAM5 on cells [4] = biological target: T1, human CEACAM5 on cells; test: flow cytometry, LoVo cells
human CEACAM5 on cells [5] = biological target: T1, human CEACAM5 on cells; test: flow cytometry, Kato-III cells

B1: AB0264 F3' CEACAM5 TriNKET (bispecific antibody, human IgG1, kappa)
chain: DIVMTQSPDSLAVSLGERATINCKSSHSLLYGNFQNNYLAWYQQKPGQPPKLLIYWASTRESGVPDRFSGSGSGTDFTLTISSLQAEDVAVYYCQQYYSYPYTFGCGTKLEIKGGGGSGGGGSGGGGSGGGGSQVQLVQSGAEVKKPGASVKVSCKASGYTFTAYTIHWVRQAPGQCLEWMGYINPSSGYTEYNQKFKDRTTLTADTSIPTAYMELSRLRSDDTAVYYCTREGGLLWFDYWGQGTLVTVSSGSDKTHTCPPCPAPELLGGPSVFLFPPKPKDTLMISRTPEVTCVVVDVSHEDPEVKFNWYVDGVEVHNAKTKPREEQYNSTYRVVSVLTVLHQDWLNGKEYKCKVSNKALPAPIEKTISKAKGQPREPRVYTLPPCRDELTKNQVSLTCLVKGFYPSDIAVEWESNGQPENNYKTTPPVLVSDGSFTLYSKLTVDKSRWQQGNVFSCSVMHEALHNHYTQKSLSLSPG
heavy: EVQLVESGGGLVKPGGSLRLSCAASGFTFSSYSMNWVRQAPGKGLEWVSSISSSSSYIYYADSVKGRFTISRDNAKNSLYLQMNSLRAEDTAVYYCARGAPIGAAAGWFDPWGQGTLVTVSSASTKGPSVFPLAPSSKSTSGGTAALGCLVKDYFPEPVTVSWNSGALTSGVHTFPAVLQSSGLYSLSSVVTVPSSSLGTQTYICNVNHKPSNTKVDKKVEPKSCDKTHTCPPCPAPELLGGPSVFLFPPKPKDTLMISRTPEVTCVVVDVSHEDPEVKFNWYVDGVEVHNAKTKPREEQYNSTYRVVSVLTVLHQDWLNGKEYKCKVSNKALPAPIEKTISKAKGQPREPQVCTLPPSRDELTENQVSLTCLVKGFYPSDIAVEWESNGQPENNYKTTPPVLDSDGSFFLYSWLTVDKSRWQQGNVFSCSVMHEALHNHYTQKSLSLSPG
light: DIQMTQSPSSVSASVGDRVTITCRASQGISSWLAWYQQKPGKAPKLLIYAASSLQSGVPSRFSGSGSGTDFTLTISSLQPEDFATYYCQQGVSFPRTFGGGTKVEIKRTVAAPSVFIFPPSDEQLKSGTASVVCLLNNFYPREAKVQWKVDNALQSGNSQESVTEQDSKDSTYSLSSTLTLSKADYEKHKVYACEVTHQGLSSPVTKSFNRGEC
B1 was tested, and the EC50 (human CEACAM5 on cells [1]) was 104 nM, the “Max FOB” value (human CEACAM5 on cells [1]) was 42 fold over background and the binding result [2] was “no binding (tested: 1600 nM)”. For the same binder, the “EC50 (read off the curve)” value [3] was about 40 nM, the EC50 (human CEACAM5 on cells [4]) was 22.1 nM and the “Max FOB” value (human CEACAM5 on cells [4]) was 14 fold over background. The EC50 (human CEACAM5 on cells [5]) was 13.3 nM and the “Max FOB” value (human CEACAM5 on cells [5]) was 4 fold over background.

B2: AB0411 F3' CEACAM5 TriNKET (bispecific antibody, human IgG1, kappa)
chain: DIQLTQSPATLSVSPGERATLSCRASQSVSSSYLAWYQQKPGQAPRLLIYGASSRATGIPDRFSGSGSGTDFTLTISRLEPEDFAVYYCQQYNNWPLTFGCGTKVEIKGGGGSGGGGSGGGGSGGGGSQVQLVQSGGGLVQPGGSLRLSCAASGFTFTSYAMSWVRQAPGKCLEWVSAISGTGDSTFYADSVKGRFTFSRDNSKNTLYLQMNSLRAEDTAVYYCAKDLGWLQYGLFDYWGQGTLVTVSSGSDKTHTCPPCPAPELLGGPSVFLFPPKPKDTLMISRTPEVTCVVVDVSHEDPEVKFNWYVDGVEVHNAKTKPREEQYNSTYRVVSVLTVLHQDWLNGKEYKCKVSNKALPAPIEKTISKAKGQPREPRVYTLPPCRDELTKNQVSLTCLVKGFYPSDIAVEWESNGQPENNYKTTPPVLVSDGSFTLYSKLTVDKSRWQQGNVFSCSVMHEALHNHYTQKSLSLSPG
heavy: EVQLVESGGGLVKPGGSLRLSCAASGFTFSSYSMNWVRQAPGKGLEWVSSISSSSSYIYYADSVKGRFTISRDNAKNSLYLQMNSLRAEDTAVYYCARGAPIGAAAGWFDPWGQGTLVTVSSASTKGPSVFPLAPSSKSTSGGTAALGCLVKDYFPEPVTVSWNSGALTSGVHTFPAVLQSSGLYSLSSVVTVPSSSLGTQTYICNVNHKPSNTKVDKKVEPKSCDKTHTCPPCPAPELLGGPSVFLFPPKPKDTLMISRTPEVTCVVVDVSHEDPEVKFNWYVDGVEVHNAKTKPREEQYNSTYRVVSVLTVLHQDWLNGKEYKCKVSNKALPAPIEKTISKAKGQPREPQVCTLPPSRDELTENQVSLTCLVKGFYPSDIAVEWESNGQPENNYKTTPPVLDSDGSFFLYSWLTVDKSRWQQGNVFSCSVMHEALHNHYTQKSLSLSPG
light: DIQMTQSPSSVSASVGDRVTITCRASQGISSWLAWYQQKPGKAPKLLIYAASSLQSGVPSRFSGSGSGTDFTLTISSLQPEDFATYYCQQGVSFPRTFGGGTKVEIKRTVAAPSVFIFPPSDEQLKSGTASVVCLLNNFYPREAKVQWKVDNALQSGNSQESVTEQDSKDSTYSLSSTLTLSKADYEKHKVYACEVTHQGLSSPVTKSFNRGEC
With B2 the EC50 (human CEACAM5 on cells [1]) was 8.67 nM, the “Max FOB” value (human CEACAM5 on cells [1]) was 37 fold over background and the EC50 (human CEACAM5 on cells [4]) was 3.25 nM. The “Max FOB” value (human CEACAM5 on cells [4]) was 19 fold over background, the EC50 (human CEACAM5 on cells [5]) was 1.17 nM and the “Max FOB” value (human CEACAM5 on cells [5]) was 5 fold over background.
